We go through 2 molecules from patent US20240182536A1 (MURAL ONCOLOGY, published 2024).

Experiment in all cases: cell-based or functional assay
The target in one assay is T1, IL-18 variant G3R, K53S (human, UniProt Q14116 37-193).
T1 chain: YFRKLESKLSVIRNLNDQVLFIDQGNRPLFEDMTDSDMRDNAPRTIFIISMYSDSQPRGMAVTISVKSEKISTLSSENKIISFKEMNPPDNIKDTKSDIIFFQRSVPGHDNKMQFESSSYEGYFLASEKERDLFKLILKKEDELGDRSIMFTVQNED

Assay [1] addresses T2, WT human IL-18 (human, UniProt Q14116 37-193).
T2 sequence: T1 chain with R3G, M38C, S53K, S68C, S76C, S127C

Assay [2] deals with T3, IL-18 variant G3E, K53S (human, UniProt Q14116 37-193).
T3 chain: T1 chain with R3E

Assay [3] has as its target T4, IL-18 variant G3H, N91V, K53S (human, UniProt Q14116 37-193).
T4 chain: T1 chain with R3H, N91V

Assay [4] deals with T2, WT human IL-18. The source holds these as a separate data set.
Assay [5] addresses T3, IL-18 variant G3E, K53S.
The next assay concerns the target T5, IL-18 variant G3T, K53S (human, UniProt Q14116 37-193).
T5 chain: T1 chain with R3T

Assay [6] deals with T4, IL-18 variant G3H, N91V, K53S.
In assay [7] the target is T2, WT human IL-18. This is another data set of the same source.
The target in assay [8] is T6, IL-18 variant G3T, M60K, D157E (human, UniProt Q14116 37-192).
T6 chain: T1 chain with R3T, S53K, M60K, D157E

The next assay concerns the target T7, IL-18 variant G3T, M60K (human, UniProt Q14116 37-193).
T7 chain: T1 chain with R3T, S53K, M60K

The target in a further assay is WT IL-18-MonoFc (human).
WT IL-18-MonoFc (human), sequence (chain, as listed by the source): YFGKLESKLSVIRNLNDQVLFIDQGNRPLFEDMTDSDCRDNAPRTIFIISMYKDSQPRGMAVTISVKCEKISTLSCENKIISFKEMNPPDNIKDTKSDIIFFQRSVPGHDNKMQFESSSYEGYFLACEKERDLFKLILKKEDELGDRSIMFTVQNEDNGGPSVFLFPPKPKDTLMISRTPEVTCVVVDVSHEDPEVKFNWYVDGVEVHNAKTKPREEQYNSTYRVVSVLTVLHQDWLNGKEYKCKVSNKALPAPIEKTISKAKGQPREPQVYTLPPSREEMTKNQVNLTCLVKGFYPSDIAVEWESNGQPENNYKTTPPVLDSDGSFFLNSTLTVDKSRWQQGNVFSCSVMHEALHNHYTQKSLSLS
The target of another assay is T8, IL-18 variant G3V, M60K (human, UniProt Q14116 37-193).
T8 chain: T1 chain with R3V, S53K, M60K

Numbering of substitutions follows the chain as printed.

B1: mouse IL-18BP (other, UniProt Q9Z0M9 29-193, looked up)
chain: TSAPQTTATVLTGSSKDPCSSWSPAVPTKQYPALDVIWPEKEVPLNGTLTLSCTACSRFPYFSILYWLGNGSFIEHLPGRLKEGHTSREHRNTSTWLHRALVLEELSPTLRSTNFSCLFVDPGQVAQYHIILAQLWDGLKTAPSPSQETLSSHSPVSRSAGPGVA
With B1, the “IC50 (read off the curve); IFN gamma from human PBMCs, G3R/K53S at 200 pM, mouse IL-18BP titrated; partial inhibition” value in the assay with IL-18 variant G3R, K53S is approximately 10000 pM. Also, the “IC50 (read off the curve); IFN gamma from human PBMCs, WT IL-18 at 200 pM, mouse IL-18BP titrated” value with WT human IL-18 [1] is approximately 2000 pM.

B2: human IL-18 binding protein (IL-18BP) (other, UniProt O95998 31-194, looked up)
chain: TPVSQTTTAATASVRSTKDPCPSQPPVFPAAKQCPALEVTWPEVEVPLNGTLSLSCVACSRFPNFSILYWLGNGSFIEHLPGRLWEGSTSRERGSTGTQLCKALVLEQLTPALHSTNFSCVLVDPEQVVQRHVVLAQLWAGLRATLPPTQEALPSSHSSPQQQG
On to B2, for which the “IC50 (read off the curve); IFN gamma from human PBMCs, G3E/K53S at 2000 pM, human IL-18BP titrated; partial inhibition” value in the assay with IL-18 variant G3E, K53S [2] is approximately 1000 pM. Besides, in assay [3], the “IC50 (read off the curve); IFN gamma from human PBMCs, G3H/K53S/N91V at 1000 pM, human IL-18BP titrated; partial inhibition” value was approximately 20000 pM. Further, in the assay with WT human IL-18 [4], the “IC50 (read off the curve); IFN gamma from human PBMCs, WT IL-18 at 200 pM, human IL-18BP titrated” value is approximately 100 pM. Further, the “Potency - with IL-18BP (IC50), IFN gamma expression in PBMCs” value in the assay with IL-18 variant G3E, K53S [5] is 925 pM; in the assay with IL-18 variant G3T, K53S, 15.3 nM; in assay [6], 24.3 nM; in the assay with WT human IL-18 [7] it was 96 pM; in assay [8], more than 100 nM; with IL-18 variant G3T, M60K, more than 100 nM. Also, the “Potency - with IL-18BP (IC50), IFN gamma expression in PBMCs” value in the assay with WT IL-18-MonoFc is 96 pM; with IL-18 variant G3V, M60K, more than 100 nM.
